# Bridge positions count the residues as written; N and C are the ends. Square brackets hold non-standard residues; d marks the D form. Ends that are not written are not given here. * marks the point of attachment. Acetyl(2-(4-imidazolyl)) = O=C(Cc1c[nH]cn1)*; Aib = CC(C)(N)C(=O)O
# T1: human GIP receptor (human, UniProt P48546 22-466)
# T1 sequence (looked up): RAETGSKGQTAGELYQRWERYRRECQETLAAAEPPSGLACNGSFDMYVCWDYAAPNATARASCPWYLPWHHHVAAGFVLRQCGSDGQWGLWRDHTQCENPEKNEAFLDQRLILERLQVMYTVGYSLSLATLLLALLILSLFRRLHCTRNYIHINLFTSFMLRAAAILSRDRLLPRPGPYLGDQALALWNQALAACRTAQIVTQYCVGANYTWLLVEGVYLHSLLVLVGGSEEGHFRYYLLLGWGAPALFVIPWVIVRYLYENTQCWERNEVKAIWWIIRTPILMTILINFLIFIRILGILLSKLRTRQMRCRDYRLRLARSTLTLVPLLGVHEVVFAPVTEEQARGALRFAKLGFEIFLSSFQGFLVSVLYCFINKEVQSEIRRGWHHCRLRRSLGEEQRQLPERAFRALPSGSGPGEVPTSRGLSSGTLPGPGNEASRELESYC
# B1: Triple agonist of SEQ ID NO: 56 (peptide)
# peptide: H[Aib]QGTFTSDYSKYLDEKRQKEFVNWLLAQC
# modifications: bridge (positions not given here); also: ring formation between underlined amino acids, places not given here
# B2: Triple agonist of SEQ ID NO: 67 (peptide)
# peptide: Y[Aib]QGTFTSDYSKYLDECAAKDFVQWLLDHHPSSGQPPPS
# modifications: bridge (positions not given here); ends not checked; also: ring formation between underlined amino acids, places not given here
# Legend:
# Test in all cases: cell-based or functional assay
# human GCG receptor = human GCG receptor (human, UniProt P47871 26-477)
# human GLP-1 receptor = human GLP-1 receptor (human, UniProt P43220 24-463)
# human GIP receptor = biological target: T1, human GIP receptor
# Chain of human GCG receptor (P47871 26-477): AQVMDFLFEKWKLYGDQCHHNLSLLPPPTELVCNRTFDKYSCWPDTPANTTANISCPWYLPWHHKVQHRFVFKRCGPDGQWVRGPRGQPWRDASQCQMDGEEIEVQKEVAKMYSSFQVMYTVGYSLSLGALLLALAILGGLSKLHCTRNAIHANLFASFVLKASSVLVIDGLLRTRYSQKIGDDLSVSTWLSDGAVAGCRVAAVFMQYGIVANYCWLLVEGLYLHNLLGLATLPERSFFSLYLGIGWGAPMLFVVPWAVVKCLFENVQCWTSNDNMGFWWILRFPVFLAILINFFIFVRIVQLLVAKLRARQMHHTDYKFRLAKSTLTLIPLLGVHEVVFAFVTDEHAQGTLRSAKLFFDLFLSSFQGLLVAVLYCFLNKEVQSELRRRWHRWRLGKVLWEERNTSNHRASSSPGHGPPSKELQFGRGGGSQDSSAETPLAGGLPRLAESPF
Binder,In vitro activity compared to native peptide (%) vs Glucagon (human GCG receptor) [%],In vitro activity compared to native peptide (%) vs GLP-1 (human GLP-1 receptor) [%],In vitro activity compared to native peptide (%) vs GIP (human GIP receptor) [%]
H[Aib]QGTFTSDVSKYLDGQAAQEFVAWLLKGC [Triple agonist of SEQ ID NO: 8],0.1,14.2,< 0.1
{Acetyl(2-(4-imidazolyl))}-[Aib]QGTFTSDYSICMDEKHQKDFVNWLLNTK (bridge 15-19) [Triple agonist of SEQ ID NO: 59],< 0.1,40.3,4
{Acetyl(2-(4-imidazolyl))}-[Aib]QGTFTSDYSIAMDEKHCKDFVNWLLNTK (bridge 15-19) [Triple agonist of SEQ ID NO: 60],< 0.1,106,18.2
H[Aib]QGTFTSDYSKYLDEKRQKEFVQWLLNTKC (bridge 16-20) [Triple agonist of SEQ ID NO: 58],2.6,39.1,0.2
Y[Aib]QGTFTSDYSKCLDEKAAKEFVQWLLDHHPSSGQPPPS (bridge 16-20) [Triple agonist of SEQ ID NO: 68],8.8,27.9,107
Y[Aib]QGTFTSDYSKYLDEKAAKEFVQWLLDHHPSSGQPPPSC (bridge 16-20) [Triple agonist of SEQ ID NO: 75],8.5,35.1,18
H[Aib]EGTFTSDYSIAMDEIHQKDFVNWLLAQKC (bridge 16-20) [Triple agonist of SEQ ID NO: 79],4.9,41.5,1.4
{Acetyl(2-(4-imidazolyl))}-[Aib]QGTFTSDYSKYLDECRAKEFVQWLLDHHPSSGQPPPS (bridge 15-19) [Triple agonist of SEQ ID NO: 73],5.4,22.6,3
Y[Aib]QGTFTSDYSKYLDEKRAKDFVQWLLDHHPSSGQPPPSC (bridge 16-20) [Triple agonist of SEQ ID NO: 76],47.6,10.3,11.7
H[Aib]QGTFTSDYSKYLDEKRQKEFVQWLLDTKC (bridge 16-20) [Triple agonist of SEQ ID NO: 78],14,51,0.12
{Acetyl(2-(4-imidazolyl))}-[Aib]QGTFTSDCSKYLDERAAQDFVQWLLDGGPSSGAPPPS [Triple agonist of SEQ ID NO: 63],< 0.1,15.3,< 0.1
Y[Aib]QGTFTSDYSKYLDECRAKDFVQWLLDHHPSSGQPPPS (bridge 16-20) [Triple agonist of SEQ ID NO: 66],172,15.8,17.2
{Acetyl(2-(4-imidazolyl))}-[Aib]QGTFTSDYSKCLDEKRAKEFVQWLLDHHPSSGQPPPS (bridge 15-19) [Triple agonist of SEQ ID NO: 74],0.9,12.9,1
H[Aib]QGTFTSDYSIAMDEIHQKDFVNWLLAQC (bridge 16-20) [Triple agonist of SEQ ID NO: 55],0.7,27.1,2.4
{Acetyl(2-(4-imidazolyl))}-[Aib]QGTFTSDKSKYLDERAAQDFVQWLLDGGPSSGAPPPS [Triple agonist of SEQ ID NO: 62],< 0.1,5.2,< 0.1
B1,4.9,57.9,0.8
H[Aib]QGTFTSDVSKYLDGQAAKEFVAWLLKGC [Triple agonist of SEQ ID NO: 7],< 0.1,13.7,< 0.1
Y[Aib]QGTFTSDYSKCLDEKRAKDFVQWLLDHHPSSGQPPPS (bridge 16-20) [Triple agonist of SEQ ID NO: 70],71.3,15.1,64.4
Y[Aib]QGTFTSDCSKYLDERAAKDFVQWLLDHHPSSGQPPPS (bridge 16-20) [Triple agonist of SEQ ID NO: 72],1,11.5,1.6
H[Aib]EGTFTSDYSIAMDEIHQKDFVDWLLAEKC (bridge 16-20) [Triple agonist of SEQ ID NO: 80],0,8.1,0.1
{Acetyl(2-(4-imidazolyl))}-[Aib]QGTFTSDYSIAMDEIACKDFVNWLLNTK (bridge 15-19) [Triple agonist of SEQ ID NO: 61],< 0.1,59.8,2.8
H[Aib]QGTFTSDYSIAMDEIHQKDFVNWLLNTC (bridge 16-20) [Triple agonist of SEQ ID NO: 57],< 0.1,11.7,0.3
Y[Aib]QGTFTSDYSKYLDECAAKEFVQWLLDHHPSSGQPPPS (bridge 16-20) [Triple agonist of SEQ ID NO: 64],60.1,64.6,92.9
Y[Aib]QGTFTSDYSKCLDERAAKEFVQWLLDHHPSSGQPPPS (bridge 16-20) [Triple agonist of SEQ ID NO: 69],9.6,24.3,62.8
H[Aib]QGTFTSDYSKCLDEKRAKEFVQWLLDHHPSSGQPPPS (bridge 16-20) [Triple agonist of SEQ ID NO: 65],25.2,95.4,11.6
B2,46.2,28.5,39.8
Y[Aib]QGTFTSDYSKYLDERACKDFVQWLLDHHPSSGQPPPS (bridge 16-20) [Triple agonist of SEQ ID NO: 71],12.7,90.1,94.7
Y[Aib]QGTFTSDYSKYLDEKAAKDFVQWLLDHHPSSGQPPPSC (bridge 16-20) [Triple agonist of SEQ ID NO: 77],12.2,38.7,35.5

# Source: patent publication US20230381281A1, “PHARMACEUTICAL COMPOSITION COMPRISING GLUCAGON/GLP-1/GIP TRIPLE AGONIST OR LONG-ACTING CONJUGATE THEREOF FOR PREVENTING OR TREATING LUPUS-RELATED DISEASES” (HANMI PHARM. CO., LTD., priority 2020, published 2023)
